# Measured values from IntAct's records for PubMed 11955446.
# B1: Protein BCL9 homolog (Drosophila melanogaster (Fruit fly)), Q961D9 (parent)
# chain: MLSTTMPRSPTQQQPQPNSDASSTSASGSNPGAAIGNGDSAASRSSPKTLNSEPFSTLSPDQIKLTPEEGTEKSGLSTSDKAATGGAPGSGNNLPEGQTMLRQNSTSTINSCLVASPQNSSEHSNSSNVSATVGLTQMVDCDEQSKKNKCSVKDEEAEISSNKAKGQAAGGGCETGSTSSLTVKEEPTDVLGSLVNMKKEERENHSPTMSPVGFGSIGNAQDNSATPVKIERISNDSTTEKKGSSLTMNNDEMSMEGCNQLNPDFINESLNNPAISSILVSGVGPIPGIGVGAGTGNLLTANANGISSGSSNCLDYMQQQNHIFVFSTQLANKGAESVLSGQFQTIIAYHCTQPATKSFLEDFFMKNPLKINKLQRHNSVGMPWIGMGQVGLTPPNPVAKITQQQPHTKTVGLLKPQFNQHENSKRSTVSAPSNSFVDQSDPMGNETELMCWEGGSSNTSRSGQNSRNHVDSISTSSESQAIKILEAAGVDLGQVTKGSDPGLTTENNIVSLQGVKVPDENLTPQQRQHREEQLAKIKKMNQFLFPENENSVGANVSSQITKIPGDLMMGMSGGGGGSIINPTMRQLHMPGNAKSELLSATSSGLSEDVMHPGDVISDMGAVIGCNNNQKTSVQCGSGVGVVTGTTAAGVNVNMHCSSSGAPNGNMMGSSTDMLASFGNTSCNVIGTAPDMSKEVLNQDSRTHSHQGGVAQMEWSKIQHQFFEERLKGGKPRQVTGTVVPQQQTPSGSGGNSLNNQVRPLQGPPPPYHSIQRSASVPIATQSPNPSSPNNLSLPSPRTTAAVMGLPTNSPSMDGTGSLSGSVPQANTSTVQAGTTTVLSANKNCFQADTPSPSNQNRSRNTGSSSVLTHNLSSNPSTPLSHLSPKEFESFGQSSAGDNMKSRRPSPQGQRSPVNSLIEANKDVRFAASSPGFNPHPHMQSNSNSALNAYKMGSTNIQMERQASAQGGSVQFSRRSDNIPLNPNSGNRPPPNKMTQNFDPISSLAQMSQQLTSCVSSMGSPAGTGGMTMMGGPGPSDINIEHGIISGLDGSGIDTINQNNCHSMNVVMNSMGPRMLNPKMCVAGGPNGPPGFNPNSPNGGLRENSIGSGCGSANSSNFQGVVPPGARMMGRMPVNFGSNFNPNIQVKASTPNTIQYMPVRAQNANNNNNNGANNVRMPPSLEFLQRYANPQMGAVGNGSPICPPSASDGTPGMPGLMAGPGAGGMLMNSSGEQHQNKITNNPGASNGINFFQNCNQMSIVDEEGGLPGHDGSMNIGQPSMIRGMRPHAMRPNVMGARMPPVNRQIQFAQSSDGIDCVGDPSSFFTNASCNSAGPHMFGSAQQANQPKTQHIKNIPSGMCQNQSGLAVAQGQIQLHGQGHAQGQSLIGPTNNNLMSTAGSVSATNGVSGINFVGPSSTDLKYAQQYHSFQQQLYATNTRSQQQQHMHQQHQSNMITMPPNLSPNPTFFVNK
# partner: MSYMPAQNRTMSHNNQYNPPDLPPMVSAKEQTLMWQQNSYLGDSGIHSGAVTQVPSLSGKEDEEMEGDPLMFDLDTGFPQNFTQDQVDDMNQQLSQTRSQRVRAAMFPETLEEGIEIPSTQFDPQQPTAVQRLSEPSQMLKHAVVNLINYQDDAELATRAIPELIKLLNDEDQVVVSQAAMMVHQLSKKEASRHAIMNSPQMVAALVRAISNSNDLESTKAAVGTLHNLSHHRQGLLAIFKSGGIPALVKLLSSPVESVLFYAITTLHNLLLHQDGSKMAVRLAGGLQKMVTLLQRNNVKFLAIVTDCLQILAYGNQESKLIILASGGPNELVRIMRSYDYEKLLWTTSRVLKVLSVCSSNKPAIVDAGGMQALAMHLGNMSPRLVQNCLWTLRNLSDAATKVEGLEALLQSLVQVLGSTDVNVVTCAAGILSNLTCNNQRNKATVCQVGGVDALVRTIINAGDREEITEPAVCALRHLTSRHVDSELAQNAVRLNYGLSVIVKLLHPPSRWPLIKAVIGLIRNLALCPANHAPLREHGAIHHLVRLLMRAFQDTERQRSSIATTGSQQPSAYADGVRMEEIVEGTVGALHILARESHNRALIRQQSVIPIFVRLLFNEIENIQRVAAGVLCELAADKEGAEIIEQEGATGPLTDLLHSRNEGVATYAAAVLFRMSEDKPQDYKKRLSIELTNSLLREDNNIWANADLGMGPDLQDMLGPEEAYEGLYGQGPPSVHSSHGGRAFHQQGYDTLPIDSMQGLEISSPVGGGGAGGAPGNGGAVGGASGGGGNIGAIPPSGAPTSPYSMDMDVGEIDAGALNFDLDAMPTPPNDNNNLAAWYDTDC
# Variants of: B1
# Conditions: with arm_drome arm
row,effect of a mutation on the interaction,Variant
1,decreasing interaction,L534F
